B1: SCT-Fa072 (antibody, V domains shown)
VH: EVQLVESGGDLVKPGGSLKLSCAASGFTFSDYGMSWVRQTPDKRLEWVATISSGGSYTYYADSVKGRFTISRDNAKNTLYLQMSSLKSEDTAMYFCTRHEITTVLSTDYAMDYWGQGTSVTVSS
VL: DVVMTQTPLSLPVSLGDQASISCRSSQSLVHSIGNTYLHWYLQKPGQSPKLLIYKVSNRFSGVPDRFSGSGSGTDFTLKIIRVEAEDLGVYFCSQSTHIPWTFGGGTKLELR
notes: murine IgG
B2: SCT-Fa094 (antibody, V domains shown)
VH: QVLLQQPGAELVRPGTSVKLSCKASGYTFTNFWMHWVKQRPGQGLEWIGVIDPSDISTHYNQNFKGKAILTVDTSSSSAYMQLSSLTSEDSAVYYCARNDYDGGYFDYWGQGTTLTVSS
VL: DVVMTQTPLSLPVSLGDQASISCRSSQSLVHGNGNTYLHWYLQKPGQSPKLLIYTVSNRFSGVPDRFSGSGSGTDFTLKISRVEAEDLGVYFCSQTIHAPWTFGGGTKLEIK
notes: murine IgG
B3: SCT-Fa077 (antibody, V domains shown)
VH: EVRLVESEGGLVQPGSSMKLSCTASGFTFSDYYMAWVRQVPEKGLEWVANINYDGTNTYYLDSLKSRFIISRDNAKNILYLQMSGLKSEDTATYYCGRGIYYYGRSHAMDYWGQGTSVTVSS
VL: DILMTQSPSSMSVSLGDTVSITCHASQGINNNVGWLQQKPGKSFKGLIYHGTNLEDGVPSRFSGSGSGADYSLTIYSLESEDFADYYCVQYDQFPPTFGGGTKLEIK
notes: murine IgG
B4: SCT-Fa088 (antibody, V domains shown)
VH: QIQLQQSGPELVKPGASVKISCKASGYTFTDYYINWVKQRPGQGLEWIGWIYPGSGNTKYNEKFKGKATLTVDTSSSTAYMQLSSLTSEDSAVYFCARAYDYGFAYWGQGTLVTVSA
VL: SIVMTQTPKFLLVSAGDRVTITCKASQSVSHGVTWYQQKPGQSPKLLISYASNRYTGVPDRFTGSGYGTDFTFTISTVQAEDLAVYFCQQDYSSPYTFGGGTKLEIK
notes: murine IgG
B5: SCT-Fa086 (antibody, V domains shown)
VH: QIQLQQSGPELVKPGASVKISCKASGYTFTDYYINWVKQRPGQGLEWIGWIYPGSGNTKYNEKFKGKATLTVDTSSNTAYMQLSSLTSEDSAVYFCARAYDYGFPYWGQGTLVTVSA
VL: SIVMTQTPKFLLVSAGDRVTITCKASQSMNNGVTWYQQKPGQSPKLLISYASNRYTGVPDRFTGSGYGTDFTFTISAVQAEDLAVYFCQQDYSSPYTFGGGTKLEIK
notes: murine IgG
B6: SCT-Fa087 (antibody, V domains shown)
VH: QIQLQQSGPELVKPGASVKISCKASGYTFTDYYINWVKQRPGQGLEWIGWIYPGSGNTKYNEKFKGKATLTVDTSSSTAYMHLSSLTSEDSAVYFCARAYDYGFAYWGQGTLVTVSA
VL: SIVMTQTPKFLLVSAGDRVTITCKASQSVSYGVTWYQQKPGQSPKLLISYSSNRYTGVPDRFTGSGSGTDFTFTISTVQAEDLAVYFCQQDYSSPYTFGGGTKLEIK
notes: murine IgG
B7: SCT-Fa076 (antibody, V domains shown)
VH: EVQVLETGGGLVQPGGSRGLSCEGSGFTFSGFWMSWVRQTPGKTLEWIGDINSDGSTIHYGPSMKDRFTIFRDNDKNTLYLQMNNVRSEDTAKYFCMSLLLNVWGTGTTVTVSS
VL: DIQMTQSPSSLSASLGERVSLTCRASQEISGYLSWLQQKPDGTIKRLISRASSLDFGVPKRFRGSRSGSDYSLTISSLESEDFADYYCLQYANYPLTFGAGTKLELK
notes: murine IgG
B8: SCT-Fa095 (antibody, V domains shown)
VH: QVQLKESGPGLVAPSQSLSITCTVSGFSLTSSVISWVRQPPGKGLEWLGIIWAGGDTNYNSALKSRLSISKDNSKSQVFLKMNSLQTDDTARYYCARNLNAMDYWGQGTSVTVSS
VL: DVLMTQTPLSLTVSLGDQASISCRSSQSIVHSNGNTYLEWFLQKPGQSPKLLIYKVSNRFSGVPDRFSGSGSGTDFTLKISRVEAEDLGVYYCFQGSHVPWTFGGGTKLEIK
notes: murine IgG
B9: SCT-Fa092 (antibody, V domains shown)
VH: QIQLVQSGPEMKKPGETVKISCKASGYTFRTYGMSWVKQAPGKGLEWMGWINTYSGEPTYADDFKGRFAFSLETSANTAYLQINNLKNEDTATFFCARAQHYFDWWGQGTTLTVSS
VL: DIKMTQSPSSMYASLGERVTITCKASQDIDSYLNWFQQKPGKSPKTLIYRATRLVDGVPSRFSGSGSGQDYSLTISSLEYEDMGIYYCLQYDEFPYTFGGGTKLEIK
notes: murine IgG
B10: SCT-Fa090 (antibody, V domains shown)
VH: QIQLVQSGPEMKKPGETVKISCKASGYIFRTYGMSWVKQAPGKGLEWMGWINTYSGEPTYADDFKGRFAFSLETSANTAYLQINNLKNEDTATFFCARAQHYFDWWGQGTTLTVSS
VL: DIKMTQSPSSMYASLGERVTITCKASQDIDSYLNWFQQKPGKSPKTLIYRATRLVDGVPSRFSGSGSGQDYSLTISSLEYEDMGIYYCLQYDEFPYTFGGGTKLEIK
notes: murine IgG
B11: SCT-Fa091 (antibody, V domains shown)
VH: QIQLVQSGPEMKKPGETVKISCKASGYTFRTYGMSWVKQAPGKGLEWMGWINTYSGEPTYADDFKGRFAFSLETSANTAYLQINNLKNEDTATFFCARAQHYFDWWGQGTTLTVSS
VL: DIKMTQSPSSMYASLGERVTITCKASQDIDRYLNWFQQKPGKSPKTLIYRATRLVDGVPSRFSGSGSGQDYSLTISSLEYEDMGIYYCLQYDEFPYTFGGGTKLEIK
notes: murine IgG
B12: SCT-Fa063 (antibody, V domains shown)
VH: EVQLQQSGTVLARPGASVKMSCKTSGYTFIRYWMHWVKQRPGQGLEWIGAIYPGNSDTTYNQKFKGRAKLTAVTSASTAYMELSSLTNEDSAVYYCTFYYGNYVNFWGQGTTLTVSS
VL: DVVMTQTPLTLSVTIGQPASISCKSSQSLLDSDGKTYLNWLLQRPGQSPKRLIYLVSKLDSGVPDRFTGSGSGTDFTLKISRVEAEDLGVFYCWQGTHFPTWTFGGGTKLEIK
notes: murine IgG
B13: SCT-Fa064 (antibody, V domains shown)
VH: EVQLQQSGTVLARPGASVKMSCKTSGYTFTRYWMHWVKQRPGQGLEWIGAIYPGNSDTNYNQKIKDKAKLTAVTTASTAYMELSSLTNEDSAVYYCTFFYGNYVNYWGQGTTLTVSS
VL: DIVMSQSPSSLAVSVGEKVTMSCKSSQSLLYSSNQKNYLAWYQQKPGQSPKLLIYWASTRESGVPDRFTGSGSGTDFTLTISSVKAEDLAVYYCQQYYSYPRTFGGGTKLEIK
notes: murine IgG
B14: SCT-Fa067 (antibody, V domains shown)
VH: EVQLQQSGTVLARPGASVKMSCKTSGYTFTRYWMHWVKQRPGQGLEWIGAIYPGNSDTNYNQKIKGKAKLTAVTTASTAYMELSSLTNEDSAVYYCTFYYGNYVNYWGQGTTLTVSS
VL: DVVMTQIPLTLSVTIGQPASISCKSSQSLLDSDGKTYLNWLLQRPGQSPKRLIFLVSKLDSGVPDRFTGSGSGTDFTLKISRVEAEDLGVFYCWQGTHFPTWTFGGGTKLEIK
notes: murine IgG
B15: SCT-Fa069 (antibody, V domains shown)
VH: EVQLQQSGTVLARPGASVKMSCKTSGYTFTRYWMHWVKQRPGQGLEWIGAIYPGNSDTNYNQKIQDKAKLTAVTTASTAYMELSSLTNEDSAVYYCTFFYGNYVNYWGQGTTLTVSS
VL: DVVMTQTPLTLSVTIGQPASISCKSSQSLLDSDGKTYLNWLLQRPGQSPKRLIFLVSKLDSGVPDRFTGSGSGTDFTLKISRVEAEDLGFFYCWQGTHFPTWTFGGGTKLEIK
notes: murine IgG
B16: SCT-Fa065 (antibody, V domains shown)
VH: EVQLQQSGTVLARPGASVKMSCKTSGYTFTRYWMHWVKQRPGQGLEWIGAIYPGNSDTNYNQKIKGKAKLTAVTTASTAYMELISLTNEDSAVYYCTFYYGNYVNYWGQGTTLTVSS
VL: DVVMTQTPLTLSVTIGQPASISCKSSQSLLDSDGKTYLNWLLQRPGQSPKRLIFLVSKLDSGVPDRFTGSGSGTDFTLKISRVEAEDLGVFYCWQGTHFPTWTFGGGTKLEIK
notes: murine IgG
B17: SCT-Fa066 (antibody, V domains shown)
VH: EVQLQQSGTVLARPGASVKMSCKTSGYTFTRYWMHWVKQRPGQGLEWIGAIYPGNSDTNYNQKIKGKAKLTAVTTASTAYMELSSLTNEDSAAYYCTFYYGNYVNYWGQGTTLTVSS
VL: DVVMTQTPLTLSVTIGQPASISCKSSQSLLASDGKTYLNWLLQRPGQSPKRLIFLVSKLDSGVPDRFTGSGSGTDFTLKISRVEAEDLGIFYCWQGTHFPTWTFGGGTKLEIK
notes: murine IgG

Biological target: T1, Human TIM-3 Human Fc tagged protein (human, fluorescently labeled with HiLyte Fluor 555 (sites not given))
T1 construct: Bought construct; also called TIM-3 protein tagged with human Fc; ACROBiosystems catalog no: TM3-H5258
Test: capture slide probed with labeled TIM-3-Fc;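 also: IgG from single CD138-enriched plasma cells, isolated from lymphocytes, immobilized on a derivatized glass slide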

Binding result, binds:
B1
B2
B3
B4
B5
B6
B7
B8
B9
B10
B11
B12
B13
B14
B15
B16
B17
